Test results from patent publication US20120076815A1.

Molecular target: recombinant TcPRACA proline racemase of Trypanosoma cruzi (subunit) (Trypanosoma cruzi) (UniProt Q4DA80)
Assay: cell-based or functional assay

Substance: recombinant TcPRACA proline racemase of Trypanosoma cruzi (subunit) (from UniProt Q4DA80 30-423) (enzyme)
- % racemization (fraction B1, start of the dimer peak): 35.5%
- % racemization (fraction B2, dimer peak, about 80 kDa): 62.9%
- % racemization (fraction B4, monomer peak, about 43 kDa): 0.7%
- % racemization (fraction B5, end of the monomer peak): 0%
